Measurements taken from PMC11894141 (EMBO Reports, 2025).

Target: T1, recombinant GST-tagged HSC70 (wild type) (human, UniProt P11142-1 1-646)
T1 construct: HSC70, human HSPA8 cDNA in pGEX-6P-1; also called GST-HSC70; GST-HSC70 WT; source: BL21-Rosetta E. coli, purified (Glutathione Sepharose 4 Fast Flow, eluted with reduced glutathione)
Assay: pull-down; Strep-tagged CSN held on Streptactin Sepharose, HSC70 at a 1:5 ratio, room temperature; with or without 5 µM NR peptide; Coomassie or immunoblot
Details: both partners purified

T1 sequence (P11142 whole entry): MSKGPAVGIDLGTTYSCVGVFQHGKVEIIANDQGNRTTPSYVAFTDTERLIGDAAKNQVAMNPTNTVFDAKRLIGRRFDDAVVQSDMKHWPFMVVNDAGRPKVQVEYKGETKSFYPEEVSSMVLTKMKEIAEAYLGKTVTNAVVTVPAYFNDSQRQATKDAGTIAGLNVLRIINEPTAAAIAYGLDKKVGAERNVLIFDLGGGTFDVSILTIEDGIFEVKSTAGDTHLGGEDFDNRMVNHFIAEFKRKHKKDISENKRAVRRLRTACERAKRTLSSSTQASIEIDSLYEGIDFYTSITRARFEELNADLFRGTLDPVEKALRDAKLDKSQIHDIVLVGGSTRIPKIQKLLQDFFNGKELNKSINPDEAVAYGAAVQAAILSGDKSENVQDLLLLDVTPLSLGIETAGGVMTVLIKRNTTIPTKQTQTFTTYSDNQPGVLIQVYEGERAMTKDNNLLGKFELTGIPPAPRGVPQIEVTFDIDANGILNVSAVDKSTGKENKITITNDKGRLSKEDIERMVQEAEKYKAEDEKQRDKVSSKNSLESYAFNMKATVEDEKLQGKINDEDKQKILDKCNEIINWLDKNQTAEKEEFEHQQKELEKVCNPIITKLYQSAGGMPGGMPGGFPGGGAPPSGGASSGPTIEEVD

B1: NR peptide (an HSC70 model substrate) (peptide)
peptide: NRLLLTGC
notes: NR peptide, HSC70 model substrate (Xu et al, 2012)
B1: binds.
